Measured values taken from doi:10.1101/221747.

What was measured:
[1] = biological target: Med15 activator-binding domain 2 (ABD2; residues 277–368) (yeast) (UniProt P19659); assay: ITC + fluorescence polarisation
[2] = biological target: Med15 158–651 Δ239–272, Δ373–483 (ABD123) (yeast) (UniProt P19659); assay: fluorescence polarisation
[3] = biological target: Med15 1–651 Δ239–272, Δ373–483 (KIX123) (yeast) (UniProt P19659); assay: fluorescence polarisation

Kd [1] [µM]	fold higher affinity than the strongest piecemeal interaction [2] [fold]	increase of affinity over ABD123 [3] [%]	Substance
150			Gcn4 central activation domain (cAD; residues 101–134) (from UniProt P03069 101-134) (domain or fragment)
	20	30	Gcn4 tandem activation domains (tAD; residues 1–134) (from UniProt P03069 1-134) (domain or fragment)
